Assay: soluble on expression in E. coli; label from the status in PepcDB or PDB records

Sequence | soluble on expression in E. coli
MSLKSNVYYEELAKQNAIKTEFLPPVRGQITDRNGTLLAINDLGFSISIKPYLSIKKSNKGILDKELSELTNLFPDLNASKLAEIYKRNDSYYNQDFIKVVDFIPYDEIISHYSELNLNKTIKIDPVVKRKYPFGKLASHIIGYVGKANLQDVQENEIAKLSNYTGKSGIERYYNDILQGEKGTRVYKVNALNQEVEQLSYTPAMSNDIELTIDIELQSYLTSLFEGNAGAAIIMNVNDGSILAAGSFPEYDLNPFVTGISFKDWDELSNSLDHPFTNKLINGYYPPGSVVKMGVGLSFLNSKNISPSTHYVCNGSIELGGRFFRCWNRSGHGPVDLKHAIKYSCDVYFYNGSLQVGIDQISETLSRIGFGVKTGVDLPSEFVGTLPSKEWKMQRYRQSWFQGDTLNTAIGQGNFLATPMQIARYTAQIAKSGEVIPHFLKSIENNNTTIENQMDENKKEIFTLFEKSQLPYIRDAMYAVANEQGGTSYRYLHNLDVKVAAKTGTAQVVGFSQTDKNRVDEKQFEYYTRSHAWLTSYAPYSKPKYVVTVLLEHGGRNITSGATVAKIYQKMIELGYFKEGHHHHHH | soluble
MSLKTIAFDSNKYLNLQRDHILERISQFDGKLYMEFGGKMLEDYHAARVLPGYEPDNKIKLLKELKEQVEIVIAINANNIEHSKARGDLGISYDQEVFRLIDKFNTLDIYVGSVVITQYNNQPAADAFRKQLEKNGIASYLHYPIKGYPTDINHIISSEGMGKNDYIKTSRNLIVVTAPGPGSGKLATCMSQMYHDQINGVKSGYAKFETFPVWNLPLHHPVNLAYEAATADLDDVNMIDPFHLETYGKTAVNYNRDIEVFPVLNRTFERILSKSPYASPTDMGVNMVGFSIVNEEAAIEASKQEIIRRYYQTLVDFKAERVTESAVKKIELLMNDIGVTPDDRHVTVAAHQKAEQTGQPALALQLPNGQIVTGKTSGLFGPTAAVIINAIKTLAKIDKTTHLIEPEYVKPIQGLKVNHLGSHNPRLHSNEILIALAITAMTSEEANLAMKELGNLKGSEAHSTVILTEEDKNVLRKLGVNITFDPVYQHHKLYRKEGHHHHHH | soluble
MSLKTLMAVGLAAVMSIPFAANAADYVIDTKGAHASINFKVNHLGYSYIKGRFNKFDGEFSYDPANIAASSVVVNVDTRSLDSNHAERDKHIRSADFIDASKYSTATFKSTEVVDKGNGQLEVKGDLTLHGQTKPIVINAEFIGAGQDPWGGQRSGFAGTTRLELKDFGIQVMGASSYVDMELHVEGVQKEGGSHHHHHH | soluble
MSLKTTEYVAEILNELHNSAAYISNEEADQLADHILSSHQIFTAGAGRSGLMAKSFAMRLMHMGFNAHIVGEILTPPLAEGDLVIIGSGSGETKSLIHTAAKAKSLHGIVAALTINPESSIGKQADLIIRMPGSPKDQSNGSYKTIQPMGSLFEQTLLLFYDAVILKLMEKKGLDSETMFTHHANLEEGGSHHHHHH | soluble
MSLKTVVVIGGGITGLSTMFYLEKLKKDYNIDLNLILIEKEEYLGGKIHSVEEKDFIMESGADSIVARNEHVMPLVKDLNLEDEMVYNETGISYIYSENMLHPIPSDTIFGIPMSVQSLFSSTLVSTKGKIVALKDFITKNKEFTKDTSLALFLESFLGKELVERQIAPVLSGVYSGKLNELTMASTLPYLLDYKNKYGSIIKGFEENKKQFQSAGNKKFVSFKGGLSTIINRLEEVLTETVVKKGVITTAVSKQEDRYEISFANHETIQADYVVLAAPHDIAQTLLQSNELNEQFNTFKNSSLISIYLGFDILDEQLPADGTGFIVTENSDLHCDACTWTSRKWKHTSGKQKLLVRMFYKSTNPVYETIKNYSEEELVRVALYDIEKSLGIKGEPEVVEVTNWKDLMPKYHLEHNQAVQALQEKMTNLYPNVYLAGASYYGVGIGACIGNGKNIANEIMDTLNKEGHHHHHH | soluble
MSLKVEYFSDSSAVPHLHLENEDSYSVTDDLFIVADGVGSYEGSKDASRYAVNYLSKMAKEIQSKEQLVEEIIKLSEEIKSIGIISGRPLMSTTISVLKISTEKYITANVGDSPIVLLRSGKLYKLYIDDSERSSTGNRFALEQAFGWNHVIVHSFEGKLEKGDLFIICTDGVSDNLSDEYDLYSILRELDAQTIVRLALNKGIKPDDATIIKVYVTMAEGHHHHHH | soluble
MSLKVHHLNESRSQRILWLLEELSLPYEIVQHTRDAKTRLAPPSLTDVHPLGKSPVIQDGALVVIESGAIIDYIIRRHGGGRLAPDAASADYDRYQQWLHYAEGSAMLPLMLNMYVGRLGEAGAPLHPRIQSEIANHLAFVNDSLAGRDYFVGDSLTGADIQMSFVPEVAKAMGKLADYPHMAAWIGRMHARPAWKTALDKGGPYALGAEGHHHHHH | soluble
MSLKVIATDMDGTLLDARGQLDLPRLEKILDQLDQRGIRFVIATGNEIHRMRQLLSPLVDRVVLVVANGARIFENNELIQAQTWDDAIVNKALTHFKGRACQDQFVVTGMKGDFVKEGTIFTDLESFMTPEMIEKFYQRMQFVDELTSDLFGGVLKMSMVVGEERLSSVLEEINALFDGRVRAVSSGYGCIDILQAGIHKAWGLEELLKRWDLKSQEIMAFGDSENDVEMLEMAGIAYAMENADEKAKAVATALAPANSQGGVYQVLENWLEKGEGHHHHHH | soluble
MSLKVLIKTDLVLGAPKTLRDVYIGIDEGQIKVISKEKPEDYDYAEYVIGGKNRVVAPGFVTTHSFLYLYPFRYRVFSGKANAFQLMSTLTPNDIYYFSLMGAYHLLKTGVTTVVTSGPNLDMIARAISEVGLRPVLAVGVDCPDSKEDWEREFTTLYNRWSSKNENRVILRLCSNEYSKEVFELSQQYDFPVLLERFVSLENISGNPINVIGLGGGARKDLDIIKQKGFHLASTPSYEVSQFPLSQYKPSISLDLSPTFDIRHEVSTSITRLILTPEEALNAMTIWGLLQLKYNDRGVLENGKVADLVIFEVKEPPTFPLDYESPYESIVFNLSTPETVLVSGEAILDGGVPLNIGIKHIEKAIERLEDIDKKVTEGHHHHHH | soluble
MSLKVYITYGTADFLKTIVQKHPSENILLMQGQENAILIHETNGDTVFQAPHAYEVIDQVGEIKHPGFAVLNNIAVTQEGRPLFENRFKNRAGKVENEPGFEAIRVLRPLDSDTYVILTLWETESAFQDWQQSGSYKEAHKKRDTSAGIDTTSIFSRPSYVTTYFAVEEGGSHHHHHH | soluble
MSLKYAWIELHSRQWPVSLTCQVLGVSPSGYHARKARDVDTDRARRRISNDALLVHIKAVHAESKGEYGWPRVWKKLLAQGIRVSKDRVQQLMKLHGIRAKTKRRFKVTTDSNHSLPVAPDLLQRDFSPARPDQVWTMDITYIWTDEGWLFLTVILDLFSRQVVGWSMQPHMRTELVSDALRMAWFRRRPEAGLIVHSDRGSQYCSRDFQDLLKGYGMRSSMSRRGNCWDNAPTESLWGSLKRARILGQRFATRREAMDEVIDWLSFYNHSRLHSTLGYVSPMQFERDWYAAQNQRVAEGHHHHHH | not soluble
MSLKYIVVTGGVMSGLGKGITAASIGRLFVDMGYRVIPIKIDPYINIDAGTMNPFQHGEVYVLKDGTEVDLDLGHYERFIGEEVTGDHNITTGKIYKRVIEKERKGDYLGQTVQIIPHVTDEIKSWIRRVAKESNAEICLVEIGGTVGDIEGMPFLEAIRQMHNEEKEEDFALVHVTLVPLDAGGEQKTKPTQHSVKELRELGLHPDVIVGRCSERLKPATKKKIALFCDVPEEAVISNEDAEDIYEVPLIFKREKLDEYLMRKLNLRAKESRKEWEEMVKRMKTLYEEASIAIVGKYVDVRDAYLSIKEALKHGGIEAGCKVNIVWVDSEDLENVDDFTLDVDGILVPGGFGARGAEGKIRAIEYARENGVPFLGICFGFQLAVIEFARNVVGFSEANSTELDENTPHPVIDLLPEQKGIDEMGGTMRLGDIEVTIKPGTIAHKLYGSEKVVERHRHRYEVNPEYIEKIESKGLVFSAYSDGGRRMEIAELPDHPFFFATQFHPEFKSRPYRPSPPFVGFVRAALKYRREEEIEGHHHHHH | soluble
MSLKYLLLGMMLLGSFAASAGMDPQQLKQTIEQRLGVQVYLVDETPMPGLYMLGTAQGLLYTDARGDYVLQGTMLDLAHDMKNLTMLGLRQQRQLALAQIGERRVQLRAEQERHRVTLFTDLACSSCRTTLAELPVLQARGVSVQLLPVLGTFADLAEAQARWCDPRQFDALDLSDRLPETGCNEILAHHIGLSQWLGIKALPSWVLPNGDLVRGYQSPEQLLKILDHINAPANPSSEGHHHHHH | soluble
MSLLFNTEDLKAIFQEVSLNPSDRLVCNNSNTIYLWQDNILRVQSDHETQYRSYNVELPFVPEQMVISPSGGLVAFHANSELYVMEVNEQSRLRKHFNTSLGIKKLLWHPLATYGLSFVILHDDSTIRIYDLEDLEPESITVFNRKSRSFGLSDHVESVCDIAFDPTGLTLYLLSSFNYCDIYAIHPCLPKNFSLRSNDTSNVTSRTKNGSLADYMLHKSLSLYNSLDKQLKLISGSDPDVESDYLTLKHDLLKQIQFFDNYKKNDGIDTFTSKAIRNSVPQGPFIIKKFPTALNAKEVTGLTIIPVGERLGLLNLQFIDGTNVVLFSDSEIVMSWSLRSNTTFNNLSVITMFNAKGQCQLLNSSEPKLVFTGDSSTTIMEMPWLEPLAQCIRLHDFSIIDDVKFENKIRTVSGTFLGVLSTLSGDILYNGNSFKVIESNDKSTTQKPINRTDEVKYTYKPSLPTSGKELDMLLTKYKTEANGFISGIPDSLAPLPLKNEGHHHHHH | soluble
MSLLLPANEQRPVVDIFVEGRRISAREGETIAAALLNAGIVPFRRTPVSGQPRAPLCLMGVCFECLVEVDGAQNVQSCMVRVNAGMQVGLPTGARRAGDGEGHHHHHH | not soluble
MSLMESWLIPAAPVTVVEEIKKSRFITMLAHTDGVEAAKAFVESVRAEHPDARHHCVAWVAGAPDDSQQLGFSDDGEPAGTAGKPMLAQLMGSGVGEITAVVVRYYGGILLGTGGLVKAYGGGVNQALRQLTTQRKTPLTEYTLQCEYHQLTGIEALLGQCDGKIINSDYQAFVLLRVALPAAKVAEFSAKLADFSRGSLQLLAIEEEGGSHHHHHH | soluble
MSLMGYKNNRVGYQKELLTSRAVIKKDNYAIIPHDGLVQNAVPGFENVDISILGSPKLGATFVDYIATFHKNGQQTTGFGGDGIQTLVYVIDGRLRVSDGQETHELEAGGYAYFTPEMKMYLANAQEADTEVFLYKKRYQPLAGHQPYKVVGSIHDQQPEEYEGMTDVLLWSLLPKEFDFDMNMHILSFEPGASHAYIETHVQEHGAYLISGQGMYNLDNEWYPVEKGDYIFMSAYVPQAAYAVGREEPLMYVYSKDANREPELEGGSHHHHHH | soluble
MSLMKFIIKLFPEITIKSQSVRLRFIKILTGNIRNVLKHYDETLAVVRHWDNIEVRAKDENQRLAIRDALTRIPGIHHILEVEDVPFTDMHDIFEKALVQYRDQLEGKTFCVRVKRRGKHDFSSIDVERYVGGGLNQHIESARVKLTNPDVTVHLEVEDDRLLLIKGRYEGIGGFPIGTQEDVLSLISGGFDSGVSSYMLMRRGCRVHYCFFNLGGAAHEIGVRQVAHYLWNRFGSSHRVRFVAINFEPVVGEILEKIDDGQMGVILKRMMVRAASKVAERYGVQALVTGEALGQVSSQTLTNLRLIDNVSDTLILRPLISYDKEHIINLARQIGTEDFARTMPEYCGVISKSPTVKAVKSKIEAEEEKFDFSILDKVVEEANNVDIREIAQQTEQEVVEVETVNGFGPNDVILDIRSIDEQEDKPLKVEGIDVVSLPFYKLSTKFGDLDQNKTWLLWCERGVMSRLQALYLREQGFNNVKVYRPEGGSHHHHHH | soluble
MSLMMFRYANFQIIKKEQELVISRGIIEKHQVTIPLRKIQAIKIKENIIRQLFGFVTVSIVSAGGGDREKEEGALTILFPMIHKKKLPHMLRTFTPEYTLEENCRRLPRREGHHHHHH | not soluble

Reference: the DeepSol protein solubility set
